The text below walks through data of patent publication US6057123, “Stem cell inhibiting proteins” (British Biotech Pharmaceuticals Limited, dated 2000).

Sequences and labels used below:
B1: LD78 Ile19>Ala (Mutant 80) (ligand)
chain: SLAADTPTACCFSYTSRQAPQNFIADYFETSSQCSKPGVIFLTKRSRQVCADPSEEWVQKYVSDLELSA
B2: LD78 Val39>Ala (Mutant 91) (ligand)
chain: SLAADTPTACCFSYTSRQIPQNFIADYFETSSQCSKPGAIFLTKRSRQVCADPSEEWVQKYVSDLELSA
B3: LD78 Lys44>Glu Arg45>Gln (Mutant 2) (ligand)
chain: SLAADTPTACCFSYTSRQIPQNFIADYFETSSQCSKPGVIFLTEQSRQVCADPSEEWVQKYVSDLELSA
B4: LD78 Phe12>Gln (Mutant 11) (ligand)
chain: SLAADTPTACCQSYTSRQIPQNFIADYFETSSQCSKPGVIFLTKRSRQVCADPSEEWVQKYVSDLELSA
B5: LD78 Glu29>Arg (Mutant 28) (ligand)
chain: SLAADTPTACCFSYTSRQIPQNFIADYFRTSSQCSKPGVIFLTKRSRQVCADPSEEWVQKYVSDLELSA
B6: LD78 Arg17>Ser Gln18>Glu (Mutant 30) (ligand)
chain: SLAADTPTACCFSYTSSEIPQNFIADYFETSSQCSKPGVIFLTKRSRQVCADPSEEWVQKYVSDLELSA
B7: LD78 Tyr27>Ala (Mutant 66) (ligand)
chain: SLAADTPTACCFSYTSRQIPQNFIADAFETSSQCSKPGVIFLTKRSRQVCADPSEEWVQKYVSDLELSA
B8: LD78 Asp26>Ala (Mutant 10) (ligand)
chain: SLAADTPTACCFSYTSRQIPQNFIAAYFETSSQCSKPGVIFLTKRSRQVCADPSEEWVQKYVSDLELSA
B9: LD78 Ser1>Ala (Mutant 54) (ligand)
chain: ALAADTPTACCFSYTSRQIPQNFIADYFETSSQCSKPGVIFLTKRSRQVCADPSEEWVQKYVSDLELSA
B10: LD78 Arg17>Ser (Mutant 5) (ligand)
chain: SLAADTPTACCFSYTSSQIPQNFIADYFETSSQCSKPGVIFLTKRSRQVCADPSEEWVQKYVSDLELSA
B11: LD78 Glu66>Ser (Mutant 52) (ligand)
chain: SLAADTPTACCFSYTSRQIPQNFIADYFETSSQCSKPGVIFLTKRSRQVCADPSEEWVQKYVSDLSLSA
B12: LD78 Ser13>Ala (Mutant 62) (ligand)
chain: SLAADTPTACCFAYTSRQIPQNFIADYFETSSQCSKPGVIFLTKRSRQVCADPSEEWVQKYVSDLELSA
B13: LD78 Ser35>Ala (Mutant 68) (ligand)
chain: SLAADTPTACCFSYTSRQIPQNFIADYFETSSQCAKPGVIFLTKRSRQVCADPSEEWVQKYVSDLELSA
B14: human LD78 (wild type, recombinant, expressed from a synthetic gene in yeast) (ligand)
chain: SLAADTPTACCFSYTSRQIPQNFIADYFETSSQCSKPGVIFLTKRSRQVCADPSEEWVQKYVSDLELSA
B15: LD78 Phe28>Glu Arg47>Glu (Mutant 26) (ligand)
chain: SLAADTPTACCFSYTSRQIPQNFIADYEETSSQCSKPGVIFLTKRSEQVCADPSEEWVQKYVSDLELSA
B16: LD78 Lys44>Ser (Mutant 42) (ligand)
chain: SLAADTPTACCFSYTSRQIPQNFIADYFETSSQCSKPGVIFLTSRSRQVCADPSEEWVQKYVSDLELSA
B17: LD78 Ile24>Ala (Mutant 38) (ligand)
chain: SLAADTPTACCFSYTSRQIPQNFAADYFETSSQCSKPGVIFLTKRSRQVCADPSEEWVQKYVSDLELSA
B18: LD78 Asp5>Ser (Mutant 37) (ligand)
chain: SLAASTPTACCFSYTSRQIPQNFIADYFETSSQCSKPGVIFLTKRSRQVCADPSEEWVQKYVSDLELSA
B19: LD78 Leu-Ser-Ala-Ser1>Pro Gly38>Ser Ser46>Gly (Mutant 35) (ligand)
chain: LSAPLAADTPTACCFSYTSRQIPQNFIADYFETSSQCSKPSVIFLTKRGRQVCADPSEEWVQKYVSDLELSA

One data set concerns the molecule itself. Put plainly: self-association; sedimentation equilibrium AUC, 150 mM PBS pH7.4.
For the molecule B1, the binding result is on record as “no binding (tested: 0.5 mg/ml)”.
As for B2, the binding result was “no binding (tested: 0.5 mg/ml)”.

A further data set deals with LD78 receptor on the murine stem cell line FDCP cell mix (A4 cells) (murine). In words: displacement of 125I-LD78 from FDCP-mix A4 cells; % of wild-type activity based on IC50.
In turn, B3 returned a Receptor Binding % WT of 5 % WT.
Turning to B4, the Receptor Binding % WT is 34 % WT.
Take B5: the Receptor Binding % WT came out at 7.7 % WT.
As to B6, the Receptor Binding % WT came out at 4.2 % WT.
Same read-out and setting: the result for B7 reads 47 % WT.
In turn, B8 had a Receptor Binding % WT of 77.4 % WT.
B9 displayed a Receptor Binding % WT of 145 % WT.
On the same count and under the same terms, in the case of B10 it was 25 % WT.
Still for that read-out and setting: the result for B11 reads 162 % WT; that for B12, 66 % WT.
In the case of B13, the Receptor Binding % WT was determined as 125 % WT.
In turn, B14 had a Receptor Binding % WT of 100 % WT.
As for B15, the Receptor Binding % WT worked out at 1 % WT.
B16 registered a Receptor Binding % WT of 18 % WT.
For B17, the Receptor Binding % WT is 50 % WT.
As for B18, the Receptor Binding % WT was found to be 45 % WT.
The molecule B19 displayed a Receptor Binding % WT of 3 % WT.
